Data reported in article PMC5702604 (2017).

B1: Piezo1-GST fusion protein (mouse Piezo1) [mouse] / Flag-tagged SERCA2 (SERCA2b) [not stated] (parent complex)
chain 1: MEPHVLGAGLYWLLLPCTLLAASLLRFNALSLVYLLFLLLLPWLPGPSRHSIPGHTGRLLRALLCLSLLFLVAHLAFQICLHTVPHLDQFLGQNGSLWVKVSQHIGVTRLDLKDIFNTTRLVAPDLGVLLASSLCLGLCGRLTRKAGQSRRTQELQDDDDDDDDDDEDIDAAPAVGLKGAPALATKRRLWLASRFRVTAHWLLMTSGRTLVIVLLALAGIAHPSAFSSIYLVVFLAICTWWSCHFPLSPLGFNTLCVMVSCFGAGHLICLYCYQTPFIQDMLPPGNIWARLFGLKNFVDLPNYSSPNALVLNTKHAWPIYVSPGILLLLYYTATSLLKLHKSCPSELRKETPREDEEHELELDHLEPEPQARDATQGEMPMTTEPDLDNCTVHVLTSQSPVRQRPVRPRLAELKEMSPLHGLGHLIMDQSYVCALIAMMVWSIMYHSWLTFVLLLWACLIWTVRSRHQLAMLCSPCILLYGLTLCCLRYVWAMELPELPTTLGPVSLHQLGLEHTRYPCLDLGAMLLYLLTFWLLLRQFVKEKLLKKQKVPAALLEVTVADTEPTQTQTLLRSLGELVTGIYVKYWIYVCAGMFIVVSFAGRLVVYKIVYMFLFLLCLTLFQVYYTLWRKLLRVFWWLVVAYTMLVLIAVYTFQFQDFPTYWRNLTGFTDEQLGDLGLEQFSVSELFSSILIPGFFLLACILQLHYFHRPFMQLTDLEHVPPPGTRHPRWAHRQDAVSEAPLLEHQEEEEVFREDGQSMDGPHQATQVPEGTASKWGLVADRLLDLAASFSAVLTRIQVFVRRLLELHVFKLVALYTVWVALKEVSVMNLLLVVLWAFALPYPRFRPMASCLSTVWTCIIIVCKMLYQLKIVNPHEYSSNCTEPFPNNTNLQPLEINQSLLYRGPVDPANWFGVRKGYPNLGYIQNHLQILLLLVFEAVVYRRQEHYRRQHQQAPLPAQAVCADGTRQRLDQDLLSCLKYFINFFFYKFGLEICFLMAVNVIGQRMNFMVILHGCWLVAILTRRRREAIARLWPNYCLFLTLFLLYQYLLCLGMPPALCIDYPWRWSKAIPMNSALIKWLYLPDFFRAPNSTNLISDFLLLLCASQQWQVFSAERTEEWQRMAGINTDHLEPLRGEPNPIPNFIHCRSYLDMLKVAVFRYLFWLVLVVVFVAGATRISIFGLGYLLACFYLLLFGTTLLQKDTRAQLVLWDCLILYNVTVIISKNMLSLLSCVFVEQMQSNFCWVIQLFSLVCTVKGYYDPKEMMTRDRDCLLPVEEAGIIWDSICFFFLLLQRRIFLSHYFLHVSADLKATALQASRGFALYNAANLKSINFHRQIEEKSLAQLKRQMKRIRAKQEKYRQSQASRGQLQSKDPQDPSQEPGPDSPGGSSPPRRQWWRPWLDHATVIHSGDYFLFESDSEEEEEALPEDPRPAAQSAFQMAYQAWVTNAQTVLRQRRERARQERAEQLASGGDLNPDVEPVDVPEDEMAGRSHMMQRVLSTMQFLWVLGQATVDGLTRWLRAFTKHHRTMSDVLCAERYLLTQELLRVGEVRRGVLDQLYVGEDEATLSGPVETRDGPSTASSGLGAEEPLSSMTDDTSSPLSTGYNTRSGSEEIVTDAGDLQAGTSLHGSQELLANARTRMRTASELLLDRRLHIPELEEAERFEAQQGRTLRLLRAGYQCVAAHSELLCYFIIILNHMVTASAASLVLPVLVFLWAMLTIPRPSKRFWMTAIVFTEVMVVTKYLFQFGFFPWNSYVVLRRYENKPYFPPRILGLEKTDSYIKYDLVQLMALFFHRSQLLCYGLWDHEEDRYPKDHCRSSVKDREAKEEPEAKLESQSETGTGHPKEPVLAGTPRDHIQGKGSIRSKDVIQDPPEDLKPRHTRHISIRFRRRKETPGPKGTAVMETEHEEGEGKETTERKRPRHTQEKSKFRERMKAAGRRLQSFCVSLAQSFYQPLQRFFHDILHTKYRAATDVYALMFLADIVDIIIIIFGFWAFGKHSAATDIASSLSDDQVPQAFLFMLLVQFGTMVIDRALYLRKTVLGKLAFQVVLVVAIHIWMFFILPAVTERMFSQNAVAQLWYFVKCIYFALSAYQIRCGYPTRILGNFLTKKYNHLNLFLFQGFRLVPFLVELRAVMDWVWTDTTLSLSNWMCVEDIYANIFIIKCSRETEKKYPQPKGQKKKKIVKYGMGGLIILFLIAIIWFPLLFMSLIRSVVGVVNQPIDVTVTLKLGGYEPLFTMSAQQPSIVPFTPQAYEELSQQFDPYPLAMQFISQYSPEDIVTAQIEGSSGALWRISPPSRAQMKQELYNGTADITLRFTWNFQRDLAKGGTVEYTNEKHTLELAPNSTARRQLAQLLEGRPDQSVVIPHLFPKYIRAPNGPEANPVKQLQPDEEEDYLGVRIQLRREQVGTGASGEQAGTKASDFLEWWVIELQDCKADCNLLPMVIFSDKVSPPSLGFLAGYGIVGLYVSIVLVVGKFVRGFFSEISHSIMFEELPCVDRILKLCQDIFLVRETRELELEEELYAKLIFLYRSPETMIKWTRERE
chain 2: MENAHTKTVEEVLGHFGVNESTGLSLEQVKKLKERWGSNELPAEEGKTLLELVIEQFEDLLVRILLLAACISFVLAWFEEGEETITAFVEPFVILLILVANAIVGVWQERNAENAIEALKEYEPEMGKVYRQDRKSVQRIKAKDIVPGDIVEIAVGDKVPADIRLTSIKSTTLRVDQSILTGESVSVIKHTDPVPDPRAVNQDKKNMLFSGTNIAAGKAMGVVVATGVNTEIGKIRDEMVATEQERTPLQQKLDEFGEQLSKVISLICIAVWIINIGHFNDPVHGGSWIRGAIYYFKIAVALAVAAIPEGLPAVITTCLALGTRRMAKKNAIVRSLPSVETLGCTSVICSDKTGTLTTNQMSVCRMFILDRVEGDTCSLNEFTITGSTYAPIGEVHKDDKPVNCHQYDGLVELATICALCNDSALDYNEAKGVYEKVGEATETALTCLVEKMNVFDTELKGLSKIERANACNSVIKQLMKKEFTLEFSRDRKSMSVYCTPNKPSRTSMSKMFVKGAPEGVIDRCTHIRVGSTKVPMTSGVKQKIMSVIREWGSGSDTLRCLALATHDNPLRREEMHLEDSANFIKYETNLTFVGCVGMLDPPRIEVASSVKLCRQAGIRVIMITGDNKGTAVAICRRIGIFGQDEDVTSKAFTGREFDELNPSAQRDACLNARCFARVEPSHKSKIVEFLQSFDEITAMTGDGVNDAPALKKAEIGIAMGSGTAVAKTASEMVLADDNFSTIVAAVEEGRAIYNNMKQFIRYLISSNVGEVVCIFLTAALGFPEALIPVQLLWVNLVTDGLPATALGFNPPDLDIMNKPPRNPKEPLISGWLFFRYLAIGCYVGAATVGAAAWWFIAADGGPRVSFYQLSHFLQCKEDNPDFEGVDCAIFESPYPMTMALSVLVTIEMCNALNSLSENQSLLRMPPWENIWLVGSICLSMSLHFLILYVEPLPLIFQITPLNVTQWLMVLKISLPVILMDETLKFVARNYLEPGKECVQPATKSCSFSACTDGISWPFVLLIMPLVIWVYSTDTNFSDMFWS

Variants of: B1
Assay: GST pull-down, western blot quantification; co-expressed Flag-SERCA2; repeated 3 times; mean ± s.e.m.; parent: 1; read off a plot

ratio to parent	Variant
~0.3	chain 1 K2182A, chain 1 K2183A, chain 1 K2184A, chain 1 K2185A
~0.4	chain 1 E2172A, chain 1 K2173A, chain 1 K2174A, chain 1 Y2175A, chain 1 P2176A, chain 1 Q2177A, chain 1 P2178A, chain 1 K2179A, chain 1 G2180A, chain 1 Q2181A
